T1: 人源IL-4R (human IL-4R), overexpressed on LN229, U251 and HEK293 cells (human, UniProt P24394 26-825)
T1 sequence (looked up): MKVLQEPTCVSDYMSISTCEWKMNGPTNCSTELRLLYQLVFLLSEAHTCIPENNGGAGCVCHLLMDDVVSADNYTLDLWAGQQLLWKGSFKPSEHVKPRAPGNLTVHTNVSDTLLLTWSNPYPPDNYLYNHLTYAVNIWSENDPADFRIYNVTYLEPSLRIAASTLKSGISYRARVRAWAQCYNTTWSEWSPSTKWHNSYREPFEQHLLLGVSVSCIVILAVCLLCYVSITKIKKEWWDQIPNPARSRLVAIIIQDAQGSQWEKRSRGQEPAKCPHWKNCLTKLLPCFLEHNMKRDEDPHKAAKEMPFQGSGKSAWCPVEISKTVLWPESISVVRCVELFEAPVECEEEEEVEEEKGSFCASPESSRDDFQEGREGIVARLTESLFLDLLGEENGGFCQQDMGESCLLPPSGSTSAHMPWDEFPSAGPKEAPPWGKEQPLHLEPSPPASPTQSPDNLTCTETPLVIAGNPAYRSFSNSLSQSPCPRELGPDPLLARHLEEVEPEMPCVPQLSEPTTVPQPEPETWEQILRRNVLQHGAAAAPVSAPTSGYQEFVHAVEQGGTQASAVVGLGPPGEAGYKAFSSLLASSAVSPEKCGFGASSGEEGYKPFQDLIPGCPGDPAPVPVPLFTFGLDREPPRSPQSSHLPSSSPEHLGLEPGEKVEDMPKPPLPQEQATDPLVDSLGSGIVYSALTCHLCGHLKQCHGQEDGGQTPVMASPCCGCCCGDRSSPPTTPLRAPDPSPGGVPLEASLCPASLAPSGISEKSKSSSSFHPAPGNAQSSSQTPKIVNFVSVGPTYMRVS

B1: 25G7-C1, DAR=5.86 (antibody, human IgG1, kappa, V domains shown)
VH: EVQLVESGGGLVQPGGSLRLSCAASGFTFSDYGMHWVRQAPGKGLEWVAFISSGSSIIYYADIVKGRSTISRDNAKNTLYLQMNSLRAEDTAVYYCTRGNKRGFFDYWGQGTLVTVSS
VL: EIVLTQSPATLSLSPGERATLSCRASSSVPYMYWYQQKPGQAPRLLIYLTSNLASGIPARFSGSGSGTDFTLTISSLEPEDFAVYYCQQWRAYPPMLTFGGGTKVEIKR
modifications: 依喜替康类似物 (exatecan analogue) joined through a linker; measured DAR 5.86; attachment residues not stated
B2: 25G7-C1, DAR=3.52 (antibody, human IgG1, kappa, V domains shown)
VH: B1 VH
VL: B1 VL
modifications: 依喜替康类似物 (exatecan analogue) joined through a linker; measured DAR 3.52; attachment residues not stated

Biological target: T1, 人源IL-4R (human IL-4R), overexpressed on …
Assay: cell-based or functional assay

Row | Binder | IC50, 体外毒性 in HEK293-IL4R细胞 [nM]
1 | B1 | 0.458
2 | B2 | 3.29
